Test results as given in patent publication US20240209076A1 (KODIAK SCIENCES, published 2024).

B1: anti-IL-6 Fab, light chain S55R (Fab, V domains shown)
VH: EVQLVESGGGLVQPGGSLRLSCAASGFTFSPFAMSWVRQAPGKGLEWVAKISPGGSWTYYSDTVTGRFTFSLDTSKSTAYLQMNSLRAEDTAVYYCARQLWGYYALDIWGQGTLVTVSS
VL: DIQLTQSPSSLSASVGDRVTITCSASISVSYMYWYQQKPGKAPKLLIYDMSNLARGVPSRFSGSGSGTDFTLTISSLQPEDFATYYCMQWSGYPYTFGQGTKVEIK
notes: see m39
B2: anti-IL-6 Fab, heavy chain Q99A (Fab, V domains shown)
VH: EVQLVESGGGLVQPGGSLRLSCAASGFTFSPFAMSWVRQAPGKGLEWVAKISPGGSWTYYSDTVTGRFTFSLDTSKSTAYLQMNSLRAEDTAVYYCARALWGYYALDIWGQGTLVTVSS
VL: DIQLTQSPSSLSASVGDRVTITCSASISVSYMYWYQQKPGKAPKLLIYDMSNLASGVPSRFSGSGSGTDFTLTISSLQPEDFATYYCMQWSGYPYTFGQGTKVEIK
B3: anti-IL-6 Fab, heavy chain A97V (Fab, V domains shown)
VH: EVQLVESGGGLVQPGGSLRLSCAASGFTFSPFAMSWVRQAPGKGLEWVAKISPGGSWTYYSDTVTGRFTFSLDTSKSTAYLQMNSLRAEDTAVYYCVRQLWGYYALDIWGQGTLVTVSS
VL: DIQLTQSPSSLSASVGDRVTITCSASISVSYMYWYQQKPGKAPKLLIYDMSNLASGVPSRFSGSGSGTDFTLTISSLQPEDFATYYCMQWSGYPYTFGQGTKVEIK
B4: anti-IL-6 Fab, heavy chain Y103S (Fab, V domains shown)
VH: EVQLVESGGGLVQPGGSLRLSCAASGFTFSPFAMSWVRQAPGKGLEWVAKISPGGSWTYYSDTVTGRFTFSLDTSKSTAYLQMNSLRAEDTAVYYCARQLWGSYALDIWGQGTLVTVSS
VL: DIQLTQSPSSLSASVGDRVTITCSASISVSYMYWYQQKPGKAPKLLIYDMSNLASGVPSRFSGSGSGTDFTLTISSLQPEDFATYYCMQWSGYPYTFGQGTKVEIK
B5: anti-IL-6 Fab, heavy chain Y104V (Fab, V domains shown)
VH: EVQLVESGGGLVQPGGSLRLSCAASGFTFSPFAMSWVRQAPGKGLEWVAKISPGGSWTYYSDTVTGRFTFSLDTSKSTAYLQMNSLRAEDTAVYYCARQLWGYVALDIWGQGTLVTVSS
VL: DIQLTQSPSSLSASVGDRVTITCSASISVSYMYWYQQKPGKAPKLLIYDMSNLASGVPSRFSGSGSGTDFTLTISSLQPEDFATYYCMQWSGYPYTFGQGTKVEIK
B6: anti-IL-6 Fab, heavy chain I108S (Fab, V domains shown)
VH: EVQLVESGGGLVQPGGSLRLSCAASGFTFSPFAMSWVRQAPGKGLEWVAKISPGGSWTYYSDTVTGRFTFSLDTSKSTAYLQMNSLRAEDTAVYYCARQLWGYYALDSWGQGTLVTVSS
VL: DIQLTQSPSSLSASVGDRVTITCSASISVSYMYWYQQKPGKAPKLLIYDMSNLASGVPSRFSGSGSGTDFTLTISSLQPEDFATYYCMQWSGYPYTFGQGTKVEIK
B7: anti-IL-6 Fab, light chain Y95I (Fab, V domains shown)
VH: EVQLVESGGGLVQPGGSLRLSCAASGFTFSPFAMSWVRQAPGKGLEWVAKISPGGSWTYYSDTVTGRFTFSLDTSKSTAYLQMNSLRAEDTAVYYCARQLWGYYALDIWGQGTLVTVSS
VL: DIQLTQSPSSLSASVGDRVTITCSASISVSYMYWYQQKPGKAPKLLIYDMSNLASGVPSRFSGSGSGTDFTLTISSLQPEDFATYYCMQWSGYPITFGQGTKVEIK
notes: see m39
B8: anti-IL-6 Fab, light chain T96I (Fab, V domains shown)
VH: EVQLVESGGGLVQPGGSLRLSCAASGFTFSPFAMSWVRQAPGKGLEWVAKISPGGSWTYYSDTVTGRFTFSLDTSKSTAYLQMNSLRAEDTAVYYCARQLWGYYALDIWGQGTLVTVSS
VL: DIQLTQSPSSLSASVGDRVTITCSASISVSYMYWYQQKPGKAPKLLIYDMSNLASGVPSRFSGSGSGTDFTLTISSLQPEDFATYYCMQWSGYPYIFGQGTKVEIK
notes: see m39
B9: anti-IL-6 Fab, light chain Y48W (Fab, V domains shown)
VH: EVQLVESGGGLVQPGGSLRLSCAASGFTFSPFAMSWVRQAPGKGLEWVAKISPGGSWTYYSDTVTGRFTFSLDTSKSTAYLQMNSLRAEDTAVYYCARQLWGYYALDIWGQGTLVTVSS
VL: DIQLTQSPSSLSASVGDRVTITCSASISVSYMYWYQQKPGKAPKLLIWDMSNLASGVPSRFSGSGSGTDFTLTISSLQPEDFATYYCMQWSGYPYTFGQGTKVEIK
notes: see m39
B10: anti-IL-6 Fab, light chain Y48F (Fab, V domains shown)
VH: EVQLVESGGGLVQPGGSLRLSCAASGFTFSPFAMSWVRQAPGKGLEWVAKISPGGSWTYYSDTVTGRFTFSLDTSKSTAYLQMNSLRAEDTAVYYCARQLWGYYALDIWGQGTLVTVSS
VL: DIQLTQSPSSLSASVGDRVTITCSASISVSYMYWYQQKPGKAPKLLIFDMSNLASGVPSRFSGSGSGTDFTLTISSLQPEDFATYYCMQWSGYPYTFGQGTKVEIK
notes: see m39
B11: anti-IL-6 Fab, light chain S55W (Fab, V domains shown)
VH: EVQLVESGGGLVQPGGSLRLSCAASGFTFSPFAMSWVRQAPGKGLEWVAKISPGGSWTYYSDTVTGRFTFSLDTSKSTAYLQMNSLRAEDTAVYYCARQLWGYYALDIWGQGTLVTVSS
VL: DIQLTQSPSSLSASVGDRVTITCSASISVSYMYWYQQKPGKAPKLLIYDMSNLAWGVPSRFSGSGSGTDFTLTISSLQPEDFATYYCMQWSGYPYTFGQGTKVEIK
notes: see m39
B12: anti-IL-6 Fab, light chain T96L (Fab, V domains shown)
VH: EVQLVESGGGLVQPGGSLRLSCAASGFTFSPFAMSWVRQAPGKGLEWVAKISPGGSWTYYSDTVTGRFTFSLDTSKSTAYLQMNSLRAEDTAVYYCARQLWGYYALDIWGQGTLVTVSS
VL: DIQLTQSPSSLSASVGDRVTITCSASISVSYMYWYQQKPGKAPKLLIYDMSNLASGVPSRFSGSGSGTDFTLTISSLQPEDFATYYCMQWSGYPYLFGQGTKVEIK
notes: see m39
B13: anti-IL-6 Fab, light chain S55V (Fab, V domains shown)
VH: EVQLVESGGGLVQPGGSLRLSCAASGFTFSPFAMSWVRQAPGKGLEWVAKISPGGSWTYYSDTVTGRFTFSLDTSKSTAYLQMNSLRAEDTAVYYCARQLWGYYALDIWGQGTLVTVSS
VL: DIQLTQSPSSLSASVGDRVTITCSASISVSYMYWYQQKPGKAPKLLIYDMSNLAVGVPSRFSGSGSGTDFTLTISSLQPEDFATYYCMQWSGYPYTFGQGTKVEIK
notes: see m39
B14: anti-IL-6 Fab, light chain S55Y (Fab, V domains shown)
VH: EVQLVESGGGLVQPGGSLRLSCAASGFTFSPFAMSWVRQAPGKGLEWVAKISPGGSWTYYSDTVTGRFTFSLDTSKSTAYLQMNSLRAEDTAVYYCARQLWGYYALDIWGQGTLVTVSS
VL: DIQLTQSPSSLSASVGDRVTITCSASISVSYMYWYQQKPGKAPKLLIYDMSNLAYGVPSRFSGSGSGTDFTLTISSLQPEDFATYYCMQWSGYPYTFGQGTKVEIK
notes: see m39
B15: anti-IL-6 Fab, light chain S91K (Fab, V domains shown)
VH: EVQLVESGGGLVQPGGSLRLSCAASGFTFSPFAMSWVRQAPGKGLEWVAKISPGGSWTYYSDTVTGRFTFSLDTSKSTAYLQMNSLRAEDTAVYYCARQLWGYYALDIWGQGTLVTVSS
VL: DIQLTQSPSSLSASVGDRVTITCSASISVSYMYWYQQKPGKAPKLLIYDMSNLASGVPSRFSGSGSGTDFTLTISSLQPEDFATYYCMQWKGYPYTFGQGTKVEIK
notes: see m39
B16: anti-IL-6 Fab, light chain Y31F (Fab, V domains shown)
VH: EVQLVESGGGLVQPGGSLRLSCAASGFTFSPFAMSWVRQAPGKGLEWVAKISPGGSWTYYSDTVTGRFTFSLDTSKSTAYLQMNSLRAEDTAVYYCARQLWGYYALDIWGQGTLVTVSS
VL: DIQLTQSPSSLSASVGDRVTITCSASISVSFMYWYQQKPGKAPKLLIYDMSNLASGVPSRFSGSGSGTDFTLTISSLQPEDFATYYCMQWSGYPYTFGQGTKVEIK
notes: see m39
B17: anti-IL-6 Fab, light chain S91A (Fab, V domains shown)
VH: EVQLVESGGGLVQPGGSLRLSCAASGFTFSPFAMSWVRQAPGKGLEWVAKISPGGSWTYYSDTVTGRFTFSLDTSKSTAYLQMNSLRAEDTAVYYCARQLWGYYALDIWGQGTLVTVSS
VL: DIQLTQSPSSLSASVGDRVTITCSASISVSYMYWYQQKPGKAPKLLIYDMSNLASGVPSRFSGSGSGTDFTLTISSLQPEDFATYYCMQWAGYPYTFGQGTKVEIK
notes: see m39
B18: anti-IL-6 Fab, light chain Y33F (Fab, V domains shown)
VH: EVQLVESGGGLVQPGGSLRLSCAASGFTFSPFAMSWVRQAPGKGLEWVAKISPGGSWTYYSDTVTGRFTFSLDTSKSTAYLQMNSLRAEDTAVYYCARQLWGYYALDIWGQGTLVTVSS
VL: DIQLTQSPSSLSASVGDRVTITCSASISVSYMFWYQQKPGKAPKLLIYDMSNLASGVPSRFSGSGSGTDFTLTISSLQPEDFATYYCMQWSGYPYTFGQGTKVEIK
notes: see m39
B19: anti-IL-6 Fab, light chain T96V (Fab, V domains shown)
VH: EVQLVESGGGLVQPGGSLRLSCAASGFTFSPFAMSWVRQAPGKGLEWVAKISPGGSWTYYSDTVTGRFTFSLDTSKSTAYLQMNSLRAEDTAVYYCARQLWGYYALDIWGQGTLVTVSS
VL: DIQLTQSPSSLSASVGDRVTITCSASISVSYMYWYQQKPGKAPKLLIYDMSNLASGVPSRFSGSGSGTDFTLTISSLQPEDFATYYCMQWSGYPYVFGQGTKVEIK
notes: see m39
B20: anti-IL-6 Fab, light chain Y95G (Fab, V domains shown)
VH: EVQLVESGGGLVQPGGSLRLSCAASGFTFSPFAMSWVRQAPGKGLEWVAKISPGGSWTYYSDTVTGRFTFSLDTSKSTAYLQMNSLRAEDTAVYYCARQLWGYYALDIWGQGTLVTVSS
VL: DIQLTQSPSSLSASVGDRVTITCSASISVSYMYWYQQKPGKAPKLLIYDMSNLASGVPSRFSGSGSGTDFTLTISSLQPEDFATYYCMQWSGYPGTFGQGTKVEIK
notes: see m39
B21: anti-IL-6 Fab, light chain V29L (Fab, V domains shown)
VH: EVQLVESGGGLVQPGGSLRLSCAASGFTFSPFAMSWVRQAPGKGLEWVAKISPGGSWTYYSDTVTGRFTFSLDTSKSTAYLQMNSLRAEDTAVYYCARQLWGYYALDIWGQGTLVTVSS
VL: DIQLTQSPSSLSASVGDRVTITCSASISLSYMYWYQQKPGKAPKLLIYDMSNLASGVPSRFSGSGSGTDFTLTISSLQPEDFATYYCMQWSGYPYTFGQGTKVEIK
notes: see m39
B22: anti-IL-6 Fab, light chain Y31G (Fab, V domains shown)
VH: EVQLVESGGGLVQPGGSLRLSCAASGFTFSPFAMSWVRQAPGKGLEWVAKISPGGSWTYYSDTVTGRFTFSLDTSKSTAYLQMNSLRAEDTAVYYCARQLWGYYALDIWGQGTLVTVSS
VL: DIQLTQSPSSLSASVGDRVTITCSASISVSGMYWYQQKPGKAPKLLIYDMSNLASGVPSRFSGSGSGTDFTLTISSLQPEDFATYYCMQWSGYPYTFGQGTKVEIK
notes: see m39

What follows are binders tested against recombinant human IL-6 (human, UniProt P05231 30-212) (assay: SPR, IL-6 on CM5 chip, Fab lysate, 25 C).
Chain of recombinant human IL-6 (P05231 30-212 limits assumed): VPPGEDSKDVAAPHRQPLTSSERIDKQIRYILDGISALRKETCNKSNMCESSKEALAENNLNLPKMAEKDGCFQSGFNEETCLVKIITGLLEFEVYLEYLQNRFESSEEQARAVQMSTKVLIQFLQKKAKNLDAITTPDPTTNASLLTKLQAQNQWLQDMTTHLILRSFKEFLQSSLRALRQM
For B1, the koff was 0.00526 s⁻¹. B2 was tested, and the koff was 0.00388 s⁻¹. For B3, the koff was 0.00412 s⁻¹. B4 was tested, and the koff was 0.00502 s⁻¹. B5 showed a koff of 0.00381 s⁻¹. Work on B6 yielded a koff of 0.00352 s⁻¹. With B7 the koff was 0.00608 s⁻¹. Work on B8 yielded a koff of 0.00423 s⁻¹. With B9 the koff was 0.00563 s⁻¹. With B10 the koff was 0.00537 s⁻¹. In the case of B11, the koff is reported as 0.0051 s⁻¹. B12 was tested, and the koff was 0.00478 s⁻¹. Binder B13 has a koff of 0.00516 s⁻¹. Binder B14 has a koff of 0.00508 s⁻¹. In the case of B15, the koff is reported as 0.00549 s⁻¹. In the case of B16, the koff is reported as 0.0051 s⁻¹. In the case of B17, the koff is reported as 0.00559 s⁻¹. B18 showed a koff of 0.00618 s⁻¹. For B19, the koff was 0.00504 s⁻¹. With B20 the koff was 0.00462 s⁻¹. B21 showed a koff of 0.00543 s⁻¹. Work on B22 yielded a koff of 0.00511 s⁻¹.
